This passage reports koff results from PMC9411592 (2022).

Experiment [1] deals with L-TGF-β1 C4S/R249A (the 'WT' of the SPR assay) (human). Nature of the experiment: SPR. A general note: In SPR one partner is held on a chip, and binding of the other changes the refractive index at the surface.
For experiment [2] the target is unchanged. Nature of the experiment: SPR. This is another data set of the same source.

Substitutions are numbered along the chain they refer to. Where two headings read alike, the source gives them in different places.

Chain of L-TGF-β1 C4S/R249A (the 'WT' of the SPR assay) (human) (chain, as listed by the source R249A): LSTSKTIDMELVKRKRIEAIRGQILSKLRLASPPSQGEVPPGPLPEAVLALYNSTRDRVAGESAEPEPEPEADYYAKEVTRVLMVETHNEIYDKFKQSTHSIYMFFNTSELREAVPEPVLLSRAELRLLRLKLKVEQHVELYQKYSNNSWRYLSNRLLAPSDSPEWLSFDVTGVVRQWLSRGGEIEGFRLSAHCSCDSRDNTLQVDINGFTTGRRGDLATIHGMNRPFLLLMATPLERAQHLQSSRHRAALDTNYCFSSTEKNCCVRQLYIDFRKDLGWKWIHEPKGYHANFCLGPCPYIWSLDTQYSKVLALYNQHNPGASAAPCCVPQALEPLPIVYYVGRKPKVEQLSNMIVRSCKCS

B1: integrin αVβ8 headpiece (αV residues 1-594, β8 residues 1-456) (complex)
chain 1: FNLDVDSPAEYSGPEGSYFGFAVDFFVPSASSRMFLLVGAPKANTTQPGIVEGGQVLKCDWSSTRRCQPIEFDATGNRDYAKDDPLEFKSHQWFGASVRSKQDKILACAPLYHWRTEMKQEREPVGTCFLQDGTKTVEYAPCRSQDIDADGQGFCQGGFSIDFTKADRVLLGGPGSFYWQGQLISDQVAEIVSKYDPNVYSIKYNNQLATRTAQAIFDDSYLGYSVAVGDFNGDGIDDFVSGVPRAARTLGMVYIYDGKNMSSLYNFTGEQMAAYFGFSVAATDINGDDYADVFIGAPLFMDRGSDGKLQEVGQVSVSLQRASGDFQTTKLNGFEVFARFGSAIAPLGDLDQDGFNDIAIAAPYGGEDKKGIVYIFNGRSTGLNAVPSQILEGQWAARSGCPPSFGYSMKGATDIDKNGYPDLIVGAFGVDRAILYRARPVITVNAGLEVYPSILNQDNKTCSLPGTALKVSCFNVRFCLKADGKGVLPRKLNFQVELLLDKLKQKGAIRRALFLYSRSPSHSKNMTISRGGLMQCEELIAYLRDESEFRDKLTPITIFMEYRLDYRTAADTTGLQPILNQFTPANISRQAHILLD
chain 2: EDNRCASSNAASCARCLALGPECGWCVQEDFISGGSRSERCDIVSNLISKGCSVDSIEYPSVHVIIPTENEINTQVTPGEVSIQLRPGAEANFMLKVHPLKKYPVDLYYLVDVSASMHNNIEKLNSVGNDLSRKMAFFSRDFRLGFGSYVDKTVSPYISIHPERIHNQCSDYNLDCMPPHGYIHVLSLTENITEFEKAVHRQKISGNIDTPEGGFDAMLQAAVCESHIGWRKEAKRLLLVMTDQTSHLALDSKLAGIVCPNDGNCHLKNNVYVKSTTMEHPSLGQLSEKLIDNNINVIFAVQGKQFHWYKDLLPLLPGTIAGEIESKAANLNNLVVEAYQKLISEVKVQVENQVQGIYFNITAICPDGSRKPGMEGCRNVTSNDEVLFNVTVTMKKCDVTGGKNYAIIKPIGFNETAKIHIHRNCSCQCEDNRGPKGKCVDETFLDSKCFQCDENK
B1 displayed a koff in experiment [1] of 0.00109 s⁻¹.

B2: integrin αVβ6-8DLL headpiece (the disulfide-linked loop of β6 substituted by that of β8) (complex)
chain 1: B1 chain 1
chain 2: HVQGGCALGGAETCEDCLLIGPQCAWCAQENFTHPSGVGERCDTPANLLAKGCQLNFIENPVSQVEILKNKPLSVGRQKNSSDIVQIAPQSLILKLRPGGAQTLQVHVRQTEDYPVDLYYLMDLSASMDDDLNTIKELGSRLSKEMSKLTSNFRLGFGSFVEKPVSPFVKTTPEEIANPCSDYNLDCLPTFGFKHILPLTNDAERFNEIVKNQKISANIDTPEGGFDAIMQAAVCKEKIGWRNDSLHLLVFVSDADSHFGMDSKLAGIVCPNDGLCHLDSKNEYSMSTVLEYPTIGQLIDKLVQNNVLLIFAVTQEQVHLYENYAKLIPGATVGLLQKDSGNILQLIISAYEELRSEVELEVLGDTEGLNLSFTAICNNGTLFQHQKKCSHMKVGDTASFSVTVNIPHCERRSRHIIIKPVGLGDALELLVSPECNCDCQKEVEVNSSKCHHGNGSFQCGVCACHPGHMGPRCE
In the case of B2, the koff in experiment [2] came out at 0.00121 s⁻¹.

B3: αVβ8-IgG1 Fc (heterotetramer of αVβ8 linked by the IgG1 Fc fragment on the C-terminus of β8) (Fc fusion)
chain 1: FNLDVDSPAEYSGPEGSYFGFAVDFFVPSASSRMFLLVGAPKANTTQPGIVEGGQVLKCDWSSTRRCQPIEFDATGNRDYAKDDPLEFKSHQWFGASVRSKQDKILACAPLYHWRTEMKQEREPVGTCFLQDGTKTVEYAPCRSQDIDADGQGFCQGGFSIDFTKADRVLLGGPGSFYWQGQLISDQVAEIVSKYDPNVYSIKYNNQLATRTAQAIFDDSYLGYSVAVGDFNGDGIDDFVSGVPRAARTLGMVYIYDGKNMSSLYNFTGEQMAAYFGFSVAATDINGDDYADVFIGAPLFMDRGSDGKLQEVGQVSVSLQRASGDFQTTKLNGFEVFARFGSAIAPLGDLDQDGFNDIAIAAPYGGEDKKGIVYIFNGRSTGLNAVPSQILEGQWAARSGCPPSFGYSMKGATDIDKNGYPDLIVGAFGVDRAILYRARPVITVNAGLEVYPSILNQDNKTCSLPGTALKVSCFNVRFCLKADGKGVLPRKLNFQVELLLDKLKQKGAIRRALFLYSRSPSHSKNMTISRGGLMQCEELIAYLRDESEFRDKLTPITIFMEYRLDYRTAADTTGLQPILNQFTPANISRQAHILL
chain 2: B1 chain 2
Regarding B3, in experiment [1], the koff worked out at 7.6e-05 s⁻¹.

B4: integrin αVβ6 headpiece (αV residues 1-594, β6 residues 1-474) (complex)
chain 1: B1 chain 1
chain 2: B2 chain 2 with D182S, Y183I, N184P, L185Y, D186F
In the case of B4, the koff in experiment [2] stood at 0.000107 s⁻¹.

B5: integrin αVβ8-6DLL headpiece (the disulfide-linked loop of β8 substituted by that of β6) (complex)
chain 1: B3 chain 1
chain 2: B1 chain 2 with D171S, Y172I, N173P, L174Y, D175F
The molecule B5 had a koff in experiment [2] of 0.000142 s⁻¹.

What is called koff is the first-order rate constant of dissociation. Low readings indicate a long-lived complex, high ones a short-lived complex.
